Consider one substance from publication PMC3759449.

Test [1] addresses NrCAM, rat, tyrosine-phosphorylated in the FIGQY motif by co-expressed EphB2 (rat) (UniProt P97686).
Test [2] concerns the target NrCAM, rat (pcDNA3 plasmid) (rat) (UniProt P97686).

“ankyrinG-EGFP fusion protein (from UniProt O70511 1-2622) (natural protein)” returned a percent of cells with ankyrinG-EGFP recruited to the plasma membrane, HEK293 cells co-expressing ankyrin/NrCAM/EphB2 in test [1] of 7%. Moreover, in test [2], the percent of cells with ankyrinG-EGFP recruited to the plasma membrane, HEK293 cells co-expressing ankyrin/NrCAM/EphB2 KD (kinase dead mutant K662R) came to 84%.
